Results taken from the supplement of paper PMC9233669.
Fewer inactive variants are shown than the library holds.

Key:
[1] = test system: biotinyl-Leu-oxazolone; assay: self-aminoacylation, catalytic enhancement (BLO) (fold over background); higher = more active; k-Seq, kA / k0A0; sequences stand for … in GGGAAUGGAUCCACAUCUACGAAUUC…UUCACUGCAGACUUGACGAAGCUG
Method in brief: (§1)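 The uncatalyzed rate is the low-activity peak of a bimodal Gaussian fit, and catalytic enhancement is median kA divided by it. The kA values came from pseudo-first-order fits, with 1000 bootstraps, of per-sequence fraction reacted measured by streptavidin capture, triplicate qPCR and Illumina sequencing. Mutagenized RNA pools with a 21-nt variable region (0.43 μM) were reacted with each biotinyl-aminoacyl-oxazolone at 2–1250 μM in 50 μL HEPES/NaCl/KCl/MgCl2/CaCl2 buffer with 5% acetonitrile, pH 6.9–7.0, for 90 minutes at room temperature.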

[2] = test system: biotinyl-Ile-oxazolone; assay: self-aminoacylation, catalytic enhancement (BIO) (fold over background); higher = more active; k-Seq, kA / k0A0; sequences stand for … in GGGAAUGGAUCCACAUCUACGAAUUC…UUCACUGCAGACUUGACGAAGCUG
Method in brief: as §1

[3] = test system: biotinyl-Val-oxazolone; assay: self-aminoacylation, catalytic enhancement (BVO) (fold over background); higher = more active; k-Seq, kA / k0A0; sequences stand for … in GGGAAUGGAUCCACAUCUACGAAUUC…UUCACUGCAGACUUGACGAAGCUG
Method in brief: as §1

[4] = test system: biotinyl-Trp-oxazolone; assay: self-aminoacylation, catalytic enhancement (BWO) (fold over background); higher = more active; k-Seq, kA / k0A0; sequences stand for … in GGGAAUGGAUCCACAUCUACGAAUUC…UUCACUGCAGACUUGACGAAGCUG
Method in brief: as §1

[5] = test system: biotinyl-Met-oxazolone; assay: self-aminoacylation, catalytic enhancement (BMO) (fold over background); higher = more active; k-Seq, kA / k0A0; sequences stand for … in GGGAAUGGAUCCACAUCUACGAAUUC…UUCACUGCAGACUUGACGAAGCUG
Method in brief: as §1

[6] = test system: biotinyl-Phe-oxazolone; assay: self-aminoacylation, catalytic enhancement (BFO) (fold over background); higher = more active; k-Seq, kA / k0A0; sequences stand for … in GGGAAUGGAUCCACAUCUACGAAUUC…UUCACUGCAGACUUGACGAAGCUG
Method in brief: as §1

Sequence | self-aminoacylation [1] | self-aminoacylation [2] | self-aminoacylation [3] | self-aminoacylation [4] | self-aminoacylation [5] | self-aminoacylation [6]
AUCACCCUGGUCAUCGAGUGA [Fam2.1 aminoacylation ribozyme variant] | 27 | 10.6 | 11.3 | 28.4 | 27.8 | 154
CGACUUCAAACAAUCGGUCUC [Fam1A.1 aminoacylation ribozyme variant] | 1.99 | 1.52 | 1.35 | 31.1 | 1.59 | 53.8
CAACUUCAAACAAUGGGUCUG [Fam1A.1 aminoacylation ribozyme variant] | 1.06 | 1.21 | 0.929 | 0.937 | 0.966 | 2.23
AAGAUUGCUAAUAGUCGCAAA [Fam3.1 aminoacylation ribozyme variant] | 1.43 | 1.58 | 1.3 | 2.09 | 1.37 | 1.39
CCCCACUUCAAGCAAUCGGUC [Fam1B.1 aminoacylation ribozyme variant] | 1.97 | 1.54 | 1.83 | 31.5 | 1.48 | 57.5
AUUACCCUGGUCAUGGAGAGA [Fam2.1 aminoacylation ribozyme variant] | 1.2 | 0.877 | 1.18 | 1.77 | 0.941 | 1.19
CCACGUUUCAAGCAAUCGGUC [Fam1B.1 aminoacylation ribozyme variant] | 3.36 | 2.68 | 3.47 | 37.6 | 2.85 | 77.2
AUUCAUCUAGGUCAUCCGGUG [Fam2.2 aminoacylation ribozyme variant] | 8.6 | 4.53 | 4.65 | 6.87 | 6.61 | 48.9
AUCCACUUAGGUCAUCGGGUG [Fam2.2 aminoacylation ribozyme variant] | 8.6 | 5.19 | 4.85 | 7.26 | 6.88 | 63.8
GUUAGCCUGGUCAUCGAGUGA [Fam2.1 aminoacylation ribozyme variant] | 7.66 | 5.11 | 5.04 | 8.56 | 6.67 | 51.9
AAGUUUCCUAAUCGUCGCAAG [Fam3.1 aminoacylation ribozyme variant] | 0.896 | 0.879 | 0.893 | 0.618 | 0.973 | 1
AUUCACCUAGGUCUUUGGGUG [Fam2.2 aminoacylation ribozyme variant] | 9.98 | 4.28 | 4.09 | 6.83 | 6.91 | 56.1
AUUCACUUAGGUCAUCGGUUG [Fam2.2 aminoacylation ribozyme variant] | 0.901 | 0.87 | 0.831 | 0.519 | 0.764 | 0.69
AAGUUUGCAAAUAGUCGAAAG [Fam3.1 aminoacylation ribozyme variant] | 0.913 | 0.956 | 0.824 | 1.04 | 0.974 | 1.58
AUUACCUUGGUCAUCGAGUGA [Fam2.1 aminoacylation ribozyme variant] | 6.89 | 3.7 | 3.88 | 8.16 | 6.66 | 7.72
AUUACCCUGGUCGGCGAGUGA [Fam2.1 aminoacylation ribozyme variant] | 9.02 | 5.39 | 5.03 | 8.06 | 7.37 | 53.6
CUACUACAUACAAUCGGUCUG [Fam1A.1 aminoacylation ribozyme variant] | 0.641 | 0.812 | 0.782 | 0.58 | 0.901 | 0.703
CUACUUCAUAAAAUCGGUCUG [Fam1A.1 aminoacylation ribozyme variant] | 0.622 | 0.656 | 0.641 | 0.389 | 0.699 | 0.567
AUUACCCCGGUCAUCGAGGGA [Fam2.1 aminoacylation ribozyme variant] | 1.07 | 1.15 | 1.93 | 1.67 | 1.21 | 2.68
AUUACCCUGCUCAGCGAGUGA [Fam2.1 aminoacylation ribozyme variant] | 3.79 | 2.24 | 2.76 | 4.77 | 3.61 | 18.5
AAGUUUGCUAAUAUUCGCAAA [Fam3.1 aminoacylation ribozyme variant] | 1.25 | 1.2 | 1.32 | 2.04 | 1.75 | 0.994
CUACUUCAAAGCAUCGGUCUG [Fam1A.1 aminoacylation ribozyme variant] | 0.898 | 0.857 | 0.939 | 0.794 | 0.802 | 0.786
CUACUUCAAAGAUUCGGUCUG [Fam1A.1 aminoacylation ribozyme variant] | 0.97 | 1.01 | 1.08 | 0.679 | 1.09 | 0.503
AGUACCCUGGUCAUCGCGUGA [Fam2.1 aminoacylation ribozyme variant] | 20.3 | 8.36 | 12.2 | 20.5 | 19.4 | 128
AUUGACCUAGGUGAUCGGGUG [Fam2.2 aminoacylation ribozyme variant] | 5.78 | 4.21 | 3.78 | 6.18 | 4.22 | 25.9
CCACGCUUCAAGCAAUCGGUG [Fam1B.1 aminoacylation ribozyme variant] | 5.09 | 2.49 | 2.41 | 4.43 | 3.73 | 5.52

Sequence | self-aminoacylation [1] | self-aminoacylation [2] | self-aminoacylation [3] | self-aminoacylation [4] | self-aminoacylation [5] | self-aminoacylation [6]
CUACUUCACGCAAUCGGUCUG [Fam1A.1 aminoacylation ribozyme variant] | 0.711 | 0.837 | 0.908 | 0.819 | 0.912 | 0.929
CCACACUUCCAGCAAUCGGUG [Fam1B.1 aminoacylation ribozyme variant] | 4.82 | 2.74 | 3.05 | 3.13 | 3.83 | 18.9
CUUCUUCAAACAAUCGGUCAG [Fam1A.1 aminoacylation ribozyme variant] | 0.623 | 0.818 | 0.734 | 2.59 | 0.655 | 5.5
CCACACUUCGAGUAAUCGGUC [Fam1B.1 aminoacylation ribozyme variant] | 0.78 | 0.822 | 0.893 | 0.789 | 0.958 | 0.641
CCACAAUUCAAGAAAUCGGUC [Fam1B.1 aminoacylation ribozyme variant] | 0.866 | 0.949 | 0.906 | 1.41 | 0.78 | 1.38
AUUACCCUGGUCGUCGAGUAA [Fam2.1 aminoacylation ribozyme variant] | 1.68 | 1.27 | 1.12 | 0.721 | 1.3 | 1.08
GGACACUUCAAGCAAUCGGUC [Fam1B.1 aminoacylation ribozyme variant] | 2.4 | 2.38 | 2.29 | 22.5 | 2.13 | 26.7
ACUACCCUGGUCUUCGAGUGA [Fam2.1 aminoacylation ribozyme variant] | 4.54 | 2.45 | 2.72 | 5.15 | 4.26 | 11.5
AUUACCCUCGUCUUCGAGUGA [Fam2.1 aminoacylation ribozyme variant] | 5.17 | 2.8 | 3.24 | 7.17 | 5.15 | 29.4
AUUCACCUAGGUAAUCGCGUG [Fam2.2 aminoacylation ribozyme variant] | 2.8 | 1.75 | 2.15 | 2.74 | 2.51 | 16.1
AUUACCCUCGUCAUCGACUGA [Fam2.1 aminoacylation ribozyme variant] | 0.644 | 0.735 | 0.877 | 0.555 | 0.868 | 0.811
AAGUAUGAUAAUAGUCGCAAG [Fam3.1 aminoacylation ribozyme variant] | 1.1 | 1.22 | 1.28 | 1.2 | 1.13 | 1.35
CCACACUUCCAGCAAUCGGUC [Fam1B.1 aminoacylation ribozyme variant] | 0.9 | 1.14 | 1.25 | 0.872 | 0.882 | 1.03
UUACCUCAAACAAUCGGUCUG [Fam1A.1 aminoacylation ribozyme variant] | 0.861 | 0.975 | 1.01 | 2.66 | 0.97 | 3.03
CUACUUCAAACAAUCCUUCUG [Fam1A.1 aminoacylation ribozyme variant] | 0.469 | 0.603 | 0.665 | 0.528 | 0.577 | 1.04
AGUCAUCUAGGUCAUCGGGUG [Fam2.2 aminoacylation ribozyme variant] | 7.92 | 5.24 | 5.47 | 9.27 | 7.32 | 53.9
UCACACUUCAAGCAACCGGUC [Fam1B.1 aminoacylation ribozyme variant] | 0.739 | 0.984 | 1.05 | 0.796 | 0.801 | 1.26
AUUCAGCUAGGUCAUCGAGUG [Fam2.2 aminoacylation ribozyme variant] | 2.86 | 2.01 | 1.95 | 1.98 | 2.24 | 8.78
AGUCACCUAGUUCAUCGGGUG [Fam2.2 aminoacylation ribozyme variant] | 4.05 | 3.71 | 3.29 | 5.16 | 4.14 | 24
CGACACUUCAAGGAAUCGGUC [Fam1B.1 aminoacylation ribozyme variant] | 1.89 | 2.39 | 1.73 | 1.84 | 1.42 | 3.19
CUACUUCAAACAAUCGGAUUG [Fam1A.1 aminoacylation ribozyme variant] | 0.719 | 0.999 | 0.89 | 1.3 | 0.953 | 2.03
AUUCACCUAGGUCAUCGGUGG [Fam2.2 aminoacylation ribozyme variant] | 1.85 | 1.5 | 1.52 | 1.81 | 1.97 | 4.26
CUACACUUCAAGCAAUCGGGC [Fam1B.1 aminoacylation ribozyme variant] | 1.27 | 1.48 | 1.42 | 2.02 | 1.95 | 0.999
CUACUUCAAACAACGGGUCUG [Fam1A.1 aminoacylation ribozyme variant] | 0.627 | 0.937 | 0.904 | 0.697 | 0.716 | 0.618
AAGUUUGCUAAUAGACGCUAG [Fam3.1 aminoacylation ribozyme variant] | 0.495 | 0.547 | 0.654 | 0.501 | 0.754 | 0.777
